The results in this text go back to article PMC8167812 (Cell reports, 2021).

This experiment deals with Histone H3 tail peptide H3K9MK14C with a C-terminal biotinylated lysine (fission yeast, C-terminal biotinylated lysine). In words: BLI. On the technique in general: BLI is a label-free optical method that tracks binding on a fibre tip over time.

B1: Clr4 SET domain (residue 190–490) (domain or fragment)
chain: NPSKLDSYTHLSFYEKRELFRKKLREIEGPEVTLVNEVDDEPCPSLDFQFISQYRLTQGVIPPDPNFQSGCNCSSLGGCDLNNPSRCECLDDLDEPTHFAYDAQGRVRADTGAVIYECNSFCSCSMECPNRVVQRGRTLPLEIFKTKEKGWGVRSLRFAPAGTFITCYLGEVITSAEAAKRDKNYDDDGITYLFDLDMFDDASEYTVDAQNYGDVSRFFNHSCSPNIAIYSAVRNHGFRTIYDLAFFAIKDIQPLEELTFDYAGAKDFSPVQSQKSQQNRISKLRRQCKCGSANCRGWLFG
B1 gave a t1/2 of 9.6 s.
